Laboratory results published in US20230398116A1, “Agent for reversing resistance to anticancer drugs” (Y'S AC CO., LTD., priority 2020, published 2023).
Entries after “also recorded” stand apart in the source; their conditions may differ.

Key:
[1] = system: endoplasmic reticulum stress signaling in E0771 cells; assay: qRT-PCR of endoplasmic reticulum stress markers in E0771 cells; assay type: cell-based, mouse; conditions: 6 hours
Description: (§1) E0771 cells, HCC70 cells, and MDA-MB-468 cells were cultured in RPMI1640 medium containing 10% FCS on a 6-well plate (Corning), and then stimulated with IL-26 (30 ng/ml) in the presence or absence of gefitinib for 3, 6, or 12 hours. The cells were harvested and total RNA was extracted. cDNA was synthesized using PrimeScript II first-strand cDNA synthesis kit (TaKaRa Bio, Japan) and oligo (dT) primers. The mRNA levels were measured by 7500 System SDS software (Applied Biosystems, Foster City, CA) and normalized to hypoxanthine phosphoribosyltransferase expression levels.

[2] = system: MDA-MB468 cells; assay: MTT assay / cell proliferation (confluence) assay, MDA-MB468; assay type: cell-based, human
Description: (§2) Human and mouse breast cancer cells (1×10^4) were cultured in 10% FCS containing RPMI1640 medium on a 96-well flat bottom plate (Corning, Tewksbury, MA) at 37° C. for 24 hours, and then stimulated with IL-26 for 48 hours in the presence or absence of EGFR-TKI (gefitinib or erlotinib) at various concentrations, a signal inhibitor, and a neutralizing antibody. HUVECs were seeded in a 96-well flat bottom plate at 5×10^3 cells/well in a 2% FBS-containing EGM medium in which growth factors were reduced by half, and cultured at 37° C. for 12 hours. Thereafter, the medium was aspirated, and a recombinant human IL-26 dimer was adjusted to a final concentration of 10 ng/mL in a 2% FBS-containing EGM medium containing no growth factors, and added to the cells. The stimulation was started in the presence or absence of control human IgG and anti-human IL-26 antibodies, and the cells were cultured for 48 hours. Thereafter, a concentration of 20 μl or 1/10 of a 5 mg/ml MTT solution (Tetrazolium monosodium salt, WST-8) was added to each well, and the plate was allowed to stand for 1 hour. The absorbance at 450 nm/595 nm was measured using Microplate Reader (Bio-Rad, Hercules, CA) and data was analyzed with Microplate Manager 6 software (Bio-Rad).
(§3) Human and mouse breast cancer cells (1×10^4) were cultured in RPMI1640 medium containing 10% FCS for 24 hours at 37° C. on a 96-well flat bottom plate (Corning), and then stimulated with IL-26 (30 ng/ml) in the presence or absence of various concentrations of gefitinib and a neutralizing antibody. Cell proliferation was measured as cell confluence using IncuCyte ZOOM (Essen Bioscience, Ann Arbor, MI).

[3] = system: E0771 cells; assay: MTT assay / cell proliferation (confluence) assay, E0771; assay type: cell-based, mouse
Description: as §2, §3

[4] = system: HCC70 cells; assay: JC-1 staining (mitochondrial membrane potential) of HCC70 cells; assay type: cell-based, human; conditions: 24 hours, FIG. 31
Description: Mitochondrial stability was evaluated using the mitochondrial membrane potential (ΔΨm) assay kit (Cayman Chemical, Ann Arbor, MI, USA) utilizing JC-1 staining. HCC70 cells (1×10^4 cells) were stimulated with IL-26 (30 ng/ml) in the presence or absence of gefitinib (40 μM), a signal inhibitor, and a neutralizing antibody in 96-well flat bottom plate (Corning) for 24 hours. […] Stained cells were quantified using Image-J software (NIH). Images were captured using a 40× objective.

[5] = system: HCC70 cells; assay: MTT assay / cell proliferation (confluence) assay, HCC70; assay type: cell-based, human
Description: as §2, §3

[6] = system: T47D cells; assay: MTT assay / cell proliferation (confluence) assay, T47D; assay type: cell-based, human; conditions: 48 hours
Description: as §2, with “The stimulation was started in the presence or absence of control human IgG and anti-human IL-26 antibodies, and the cells were cultured for 48 hours. Thereafter, a concentration of 20 μl or 1/10 of a 5 mg/ml MTT solution (Tetrazolium monosodium salt, WST-8) was added to each well, and the plate was allowed to stand for 1 hour.” left out
as §3

[7] = system: endoplasmic reticulum stress signaling (DDIT3, ATF3, ATF4) in HCC70 cells; assay: qRT-PCR and immunofluorescence of endoplasmic reticulum stress markers in HCC70 cells; assay type: cell-based, human
Description: (§4) E0771 and HCC70 cells (1×10^5) were cultured for 24 hours in RPMI1640 medium with 10% FCS on Lab-Tek chamber slides (Thermo Fisher Scientific). The cultured cells were stimulated with Alexa Fluor 488 labeled IL-26 (30 ng/ml) in the presence or absence of recombinant human and mouse EphA3-Ig for 1 hour. HCC70 cells were stimulated with IL-26 (30 ng/ml) in the presence or absence of gefitinib (40 μM), a signal inhibitor, and a neutralizing antibody for 24 hours. Subcutaneous tumor samples obtained from mice were fixed in 4% paraformaldehyde (Thermo Fisher Scientific) and embedded in OCT compound (Tissue-Tek (registered trademark), Sakura Finetek, Japan). Cells and slides were immunostained with each antibody and observed using a Zeiss inverted microscope and Axiovision 2.0 program (Carl Zeiss, Germany). The fluorescence intensity was quantified with Image-J software (NIH). The images were captured using a 100×400× objective.
as §1

[8] = target: T1, interaction between IL-26 and EphA3 (Homo sapiens, UniProt Q9NPH9); assay: Immunofluorescence of rhIL-26-Alexa488 and cell surface EphA3 on HCC70 cells; assay type: cell-based
T1 construct: purchased R&D Systems; host or cells: IL-26 was purchased; EphA3 is endogenous on HCC70 cells
T1 sequence (Q9NPH9 22-171): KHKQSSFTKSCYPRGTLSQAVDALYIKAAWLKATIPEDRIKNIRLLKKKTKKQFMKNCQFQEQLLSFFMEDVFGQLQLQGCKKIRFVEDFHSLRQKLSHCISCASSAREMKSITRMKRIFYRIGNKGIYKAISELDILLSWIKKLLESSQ
Description: as §4

[9] = E0771, IL-26 30 ng/ml, gefitinib 20 μM

COc1cc2ncnc(Nc3ccc(F)c(Cl)c3)c2cc1OCCCN1CCOCC1 [gefitinib, Gefitinib, reference compound]
mRNA expression levels of DDIT3, ATF3 and ATF4, gefitinib treatment ([1]; E0771, gefitinib 20 μM, FIG. 29): significantly increased | mRNA expression levels of endoplasmic reticulum stress-related cytokines/chemokines, gefitinib treatment ([1]; E0771, gefitinib 20 μM, FIG. 34): significantly increased | cell proliferation under gefitinib ([2]; MDA-MB468, 48 hours, FIGS. 4A, 4B): suppression of cell proliferation | cell proliferation under gefitinib treatment ([3]; E0771, 48 hours, FIGS. 2A to 2C): suppressed | mitochondrial activity, gefitinib treatment ([4]; HCC70, gefitinib 40 μM): significantly reduced mitochondrial activity | cell proliferation under gefitinib treatment ([5]; HCC70, 48 hours, FIGS. 3A to 3C): suppressed | cell proliferation under gefitinib ([6]; FIGS. 4C, 4D): suppression of cell proliferation | mRNA expression levels of IL-6, IL-8 and CXCL2, gefitinib treatment ([7]; HCC70, gefitinib 40 μM, 6 hours, FIG. 34): significantly increased | expression of DDIT3 at the protein level, gefitinib treatment ([7]; HCC70, gefitinib 40 μM, 24 hours, immunocytochemical staining, FIG. 30): marked increase | mRNA expression levels of DDIT3, ATF3 and ATF4, gefitinib treatment ([7]; HCC70, gefitinib 40 μM, FIG. 28): significantly increased

B1: 69-10: mouse anti-human IL-26 monoclonal antibody, clone 69-10, from deposited hybridoma (antibody, V domains shown)
VH: QVTLKESGPGILKPSQTLSLTCSFSGFSLSTSGMGVGWIRQPSGKGLEWLAHIWWDDDKYYNPSLKSQLTISKDTSRNQVFLKITSVDTADTATYYCVRGGITATHYYAMDYWGQGTSVTVSS
VL: DIQMTQSPASQSASLGESVTISCLASQTIGTWLSWYQQKPGKSPQLLIYAATSLADGVPSRFSGSGSGTKFSFKISSLQAEDFVSYYCQQLYSSPWTFGGGTKLEIK
reversal of inhibitory effect of IL-26 on gefitinib-induced suppression of cell proliferation (MTT) ([3]; E0771, IL-26 30 ng/ml, gefitinib 20 μM, antibody 20 μg/ml, 48 hours, FIG. 5D): reversed the inhibitory effect of IL-26 on gefitinib-induced suppression of cell proliferation | reversal of effect of IL-26 on gefitinib-induced suppression of cell proliferation (percent confluence) ([3]; E0771, gefitinib 15 μM and IL-26, antibody 10 μg/ml (mixture 2.5 μg/ml each), FIG. 11): reversed the effect of IL-26 on gefitinib-induced suppression of cell proliferation | reversal of inhibitory effect of IL-26 on gefitinib-induced suppression of cell proliferation ([5]; HCC70, IL-26 30 ng/ml, gefitinib 40 μM, 48 hours, MTT, FIG. 59): reversed the inhibitory effect of IL-26 on gefitinib-induced suppression of cell proliferation in an antibody dose-dependent manner | inhibition of the decrease in expression of DDIT3 at the protein level by IL-26 together with gefitinib ([7]; HCC70, 24 hours, antibodies 50 μg/ml, FIG. 32 lower): significantly inhibited | inhibitory effect compared with anti-EphA3 pAb ([7]; HCC70 cells treated with gefitinib and IL-26): stronger than that of anti-EphA315 pAb | reversal of effect of IL-26 on gefitinib-induced DDIT3 expression and mitochondrial membrane depolarization ([7]; HCC70 cells treated with gefitinib and IL-26, FIGS. 32 and 33): reversed the effect of IL-26 | inhibition of interaction between IL-26 and EphA3 ([8]; HCC70, rhIL-26-Alexa488 30 ng/ml, 50 μg/ml each, 1 hour, FIG. 21): clearly inhibited the interaction between IL-26 and EphA3

B2: IL-26: recombinant human IL-26 dimers for cell stimulation, R&D Systems (protein)
chain: KHKQSSFTKSCYPRGTLSQAVDALYIKAAWLKATIPEDRIKNIRLLKKKTKKQFMKNCQFQEQLLSFFMEDVFGQLQLQGCKKIRFVEDFHSLRQKLSHCISCASSAREMKSITRMKRIFYRIGNKGIYKAISELDILLSWIKKLLESSQ
mRNA expression levels of DDIT3, ATF3 and ATF4, IL-26 with gefitinib [1, 9]: significantly decreased | mRNA expression levels of endoplasmic reticulum stress-related cytokines/chemokines, IL-26 with gefitinib [1, 9]: significantly reduced | effect of exogenous IL-26 on suppression of cell proliferation by gefitinib ([2]; MDA-MB468, 48 hours): inhibited | effect of exogenous IL-26 on inhibitory effect of erlotinib ([2]; MDA-MB-468, IL-26 30 ng/ml, erlotinib 30 μM or 50 μM, 48 hours, MTT): inhibited the inhibitory effect of erlotinib on cell proliferation | effect of exogenous IL-26 on inhibitory effect of erlotinib ([3]; E0771, IL-26 30 ng/ml, erlotinib 30 μM or 50 μM, 48 hours, MTT): inhibited the inhibitory effect of erlotinib on cell proliferation | effect of exogenous IL-26 on gefitinib-induced suppression of cell proliferation ([3]; E0771, IL-26 with gefitinib, 48 hours): significantly inhibited the cell proliferation suppression induced by gefitinib; also recorded: significantly suppressed in a dose-dependent manner | cell proliferation, IL-26 treatment alone ([3]; E0771, no gefitinib): did not affect cell proliferation | mitochondrial activity, IL-26 with gefitinib ([4]; HCC70, IL-26 30 ng/ml, gefitinib 40 μM): significantly inhibited the reduction in mitochondrial activity | effect of exogenous IL-26 on inhibitory effect of erlotinib ([5]; HCC70, IL-26 30 ng/ml, erlotinib 30 μM or 50 μM, 48 hours, MTT): inhibited the inhibitory effect of erlotinib on cell proliferation | effect of exogenous IL-26 on gefitinib-induced suppression of cell proliferation ([5]; HCC70, IL-26 with gefitinib, 48 hours): significantly inhibited the cell proliferation suppression induced by gefitinib | effect of exogenous IL-26 on suppression of cell proliferation by gefitinib [6]: inhibited | mRNA expression levels of IL-6, IL-8 and CXCL2, IL-26 with gefitinib ([7]; HCC70, IL-26 30 ng/ml, gefitinib 40 μM, 6 hours, FIG. 34): significantly reduced | expression of DDIT3 at the protein level, IL-26 with gefitinib ([7]; HCC70, IL-26 30 ng/ml, gefitinib 40 μM, 24 hours, FIG. 30): significant decrease | mRNA expression levels of DDIT3, ATF3 and ATF4, IL-26 with gefitinib ([7]; HCC70, IL-26 30 ng/ml, gefitinib 40 μM, FIG. 28): clearly reduced | colocalization of exogenous IL-26 with cell surface EphA3 ([8]; HCC70, FIG. 21): colocalized with the cell surface EphA3 of HCC70
